Positions count from the first letter of the chain named.

To fix the notation:
B1: TA275 (antibody, V domains shown)
VH: QVTLKESGPGILQPSQTLSLTCSFSGFSLSTFGMGVGWIRQPSGKGLEWLAHIWWDDDKYYNPALKSRLTISKDTSKNQVFLKIANVDTADTATYYCARIPTRYWYFDVWGTGTTVTVSS
VL: QAVVTQESALTTSPGETVTLTCRSSTGAVTTSNYANWVQEKPDHLFTGLIGGTNNRAPGVPARFSGSLIGDKAALTITGAQTEDEAIYFCALWYSTHYVFGGGTKVTVL
modifications: Fc SEQ 587, CL SEQ 416
B2: TA289 (antibody, V domains shown)
VH: B1 VH with P101R, T102G, R103T, Y104W
VL: B1 VL with T96N, H97Q, Y98F, V99I, G102S
modifications: Fc SEQ 587, CL SEQ 416
B3: TA101 (antibody, V domains shown)
VH: DVQLVESGGGVARPGEFLRLSCAASGFTFRDYDMGWVRQAPGEGLEWVSSISVSGTTYYADSVKGRFTISRDNSENTLYLQMNSLTAEDTAVYYCGREDTLFHYWGLGTLVTVSS
VL: QSVLTQPPSASGTPGQRVTISCSGSTSNIGTRYVYWYQQLPGTAPKLLIYKNLQRPSGVPDRFSGSKSGTSASLAISGLQSEDEADYYCAAWDERLNGWVFGGGTKLTVL
modifications: Fc SEQ 587, CL SEQ 416
B4: TA104 (antibody, V domains shown)
VH: B3 VH with F17S
VL: B3 VL
modifications: Fc SEQ 587, CL SEQ 416
B5: TA102 (antibody, V domains shown)
VH: DVQLVESGGGVVRPGESLRLSCAASGFTFRNYDMTWVRQAPGEGLEWVATISGTDDTTYYADSVKGRATISRDNSNNTLYLRLFSLRAEDTAIYYCAREASNSFIDYWGLGTLVTVSS
VL: B3 VL with T26S, T31R, K51R, L53F, Q54E, A91S, R95S
modifications: Fc SEQ 587, CL SEQ 416
B6: TA132 (antibody, V domains shown)
VH: EVQLLESGGAFVQPGGSLRLSCAASGFTFSDYYMSWVRQAPGKGLEWVSVISNSGGSTYYTDSVKGRFTISRDNSKNTLYLQINSLRAEDTAVYYCTKDIGMTYFDYWGQGTLVTVSS
VL: QSVLTQPPSASGAPGQRVTISCSGSYSNIGNSYVSWYQQLPGTAPKLLIYLNSQRPSGVPDRFSGSKSGTSASLAISGLQSEDEADYYCAAWDDLNVWVFGGGTKLTVL
modifications: Fc SEQ 587, CL SEQ 416

One assay deals with huPD1 (human) (UniProt Q15116). Kind of assay: biosensor kinetics (BLI type); antibody captured on anti-human Fc biosensor, PD-1 in solution.
Chain of huPD1 (human) (Q15116 25-170 limits assumed): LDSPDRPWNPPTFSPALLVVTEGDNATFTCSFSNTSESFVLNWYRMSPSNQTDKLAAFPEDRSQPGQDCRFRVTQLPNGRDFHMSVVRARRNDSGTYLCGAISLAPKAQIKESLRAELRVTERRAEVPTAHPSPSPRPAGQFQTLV
B1 had a Kd of 600 nM, a koff of 0.2 s⁻¹ and a kon of 330000 M⁻¹ s⁻¹.
In the same order, the values of B2 are 484 nM, 1.6 s⁻¹ and 3.4e+06 M⁻¹ s⁻¹.
Taken in the same sequence, the figures for B3 were 32.9 nM, 0.022 s⁻¹ and 680000 M⁻¹ s⁻¹.
B4 displayed a Kd of 33.1 nM and a koff of 0.024 s⁻¹.
B5: the Kd came to 24.8 nM, the koff was 0.014 s⁻¹ and the kon amounted to 540000 M⁻¹ s⁻¹.
Turning to B6, the Kd was 5.72 nM, the koff was 0.000647 s⁻¹ and the kon was 113000 M⁻¹ s⁻¹.

Another assay concerns the target cyPD1 (cynomolgus monkey). The description is as above.
Molecule B1 gave a Kd of 987 nM, a koff of 0.2 s⁻¹ and a kon of 200000 M⁻¹ s⁻¹.
B2 displayed a Kd of 1390 nM, a koff of 2.1 s⁻¹ and a kon of 1.6e+06 M⁻¹ s⁻¹.
Taken in the same sequence, the figures for B3 were 62.2 nM, 0.0076 s⁻¹ and 120000 M⁻¹ s⁻¹.
Taken in the same sequence, the figures for B4 were 56.8 nM, 0.009 s⁻¹ and 160000 M⁻¹ s⁻¹.
In the same order, the values of B5 are 7.2 nM, 0.01 s⁻¹ and 1.4e+06 M⁻¹ s⁻¹.
B6 showed a Kd of 92 nM, a koff of 0.0137 s⁻¹ and a kon of 149000 M⁻¹ s⁻¹.

Source of the values: US20240368283A1.
